Data on two molecules can be found in patent US20180346605A1 (Janssen / Centocor, published 2018).

Experiment [1] concerns the target T1, His-tagged FcRn (UniProt P55899 24-297; P61769 21-119).
T1 construct: also called neonatal Fc receptor
The experiment can be described thus: AlphaScreen competition at pH 6.0: unlabeled competitor antibody titrated against biotinylated wild-type IgG1 (legend: mAb RSV-L) on streptavidin donor beads for His-tagged FcRn on nickel acceptor beads. On the technique in general: In Alpha technology, singlet oxygen from a donor bead excites a nearby acceptor bead.

Experiment [2] has as its target T2, FcγRIIb soluble extracellular domain, C-terminal His-tag (UniProt P31994 43-217, limits assumed).
T2 construct: extracellular domain
T2 sequence (looked up): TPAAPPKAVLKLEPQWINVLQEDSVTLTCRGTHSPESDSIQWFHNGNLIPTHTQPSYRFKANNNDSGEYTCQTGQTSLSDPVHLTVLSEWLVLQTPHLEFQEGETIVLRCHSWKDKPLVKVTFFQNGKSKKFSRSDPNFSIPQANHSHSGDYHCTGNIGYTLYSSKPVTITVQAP
Description: AlphaScreen competition at pH 7.2: unlabeled competitor antibody titrated against biotinylated wild-type IgG1 (legend: mAb RSV-L) on streptavidin donor beads for His-tagged FcγRIIb (14 ng/mL) on nickel acceptor beads.

The target of experiment [3] is T3, FcγRI soluble extracellular domain, C-terminal His-tag (UniProt P12314 16-292, limits assumed).
T3 construct: extracellular domain
Description: AlphaScreen competition at pH 7.2: unlabeled competitor antibody titrated against biotinylated IgG1-L234A/L235A (legend: mAb RSV-L) on streptavidin donor beads for His-tagged FcγRI (200 ng/mL) on nickel acceptor beads.

Experiment [4] deals with T4, FcγRIIa soluble extracellular domain, C-terminal His-tag (UniProt P12318 34-217, limits assumed).
T4 construct: extracellular domain
T4 sequence (looked up): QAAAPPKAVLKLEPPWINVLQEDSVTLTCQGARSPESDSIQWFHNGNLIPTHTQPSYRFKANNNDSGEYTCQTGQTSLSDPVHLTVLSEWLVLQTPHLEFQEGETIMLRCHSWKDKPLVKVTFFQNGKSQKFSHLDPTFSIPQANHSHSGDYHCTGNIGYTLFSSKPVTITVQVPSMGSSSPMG
The experiment can be described thus: AlphaScreen competition at pH 7.2: unlabeled competitor antibody titrated against biotinylated wild-type IgG1 (legend: mAb RSV-L) on streptavidin donor beads for His-tagged FcγRIIa (10 ng/mL) on nickel acceptor beads.

Experiment [5] addresses T5, FcγRIIIa soluble extracellular domain, C-terminal His-tag (UniProt P08637 17-208, limits assumed).
T5 construct: extracellular domain
Description: AlphaScreen competition at pH 7.2: unlabeled competitor antibody titrated against biotinylated wild-type IgG1 (legend: mAb RSV-L) on streptavidin donor beads for His-tagged FcγRIIIa (200 ng/mL) on nickel acceptor beads.

B1: bsRSV-L[Q311R] (bispecific antibody, human IgG1, kappa)
heavy 1: not shown
light 1: EIVLTQSPGTLSLSPGERATFSCRSSHSIRSRRVAWYQHKPGQAPRLVIHGVSNRASGISDRFSGSGSGTDFTLTITRVEPEDFALYYCQVYGASSYTFGQGTKLERKRTVAAPSVFIFPPSDEQLKSGTASVVCLLNNFYPREAKVQWKVDNALQSGNSQESVTEQDSKDSTYSLSSTLTLSKADYEKHKVYACEVTHQGLSSPVTKSFNRGEC
heavy 2: not shown
light 2: not shown
notes: also called bispecific anti-RSV/gp120 with asymmetrical F405L Q311R
As for B1, the “IC50 (read off the curve)” value was ~50 nM in experiment [1]; ~100 nM in experiment [2]; ~4 nM in experiment [3]; ~100 nM in experiment [4]; ~80 nM in experiment [5].

B2: bsRSV-L[TLQ] (bispecific antibody, human IgG1, kappa)
heavy 1: not shown
light 1: EIVLTQSPGTLSLSPGERATFSCRSSHSIRSRRVAWYQHKPGQAPRLVIHGVSNRASGISDRFSGSGSGTDFTLTITRVEPEDFALYYCQVYGASSYTFGQGTKLERKRTVAAPSVFIFPPSDEQLKSGTASVVCLLNNFYPREAKVQWKVDNALQSGNSQESVTEQDSKDSTYSLSSTLTLSKADYEKHKVYACEVTHQGLSSPVTKSFNRGEC
heavy 2: not shown
light 2: not shown
notes: also called bispecific anti-RSV/gp120 with asymmetrical F405L/T307P/L309Q/Q311R
As to B2, the “IC50 (read off the curve)” value in experiment [1] was ~100 nM; in experiment [3], ~4 nM; in experiment [4], ~100 nM; in experiment [5] it was ~80 nM.
